# Test results: patent publication US20140105889A1 (published 2014)
# Changes are numbered by the printed parent chain. Names and notes keep the numbering of the source.
# T1: human FcγRIIa type H (human, UniProt P12318 36-217)
# T1 construct: Whole entry named for FcγRIIa allotype H131 (AAH20823.1); also called FcγRIIaH; FcγRIIa(H)
# T1 sequence: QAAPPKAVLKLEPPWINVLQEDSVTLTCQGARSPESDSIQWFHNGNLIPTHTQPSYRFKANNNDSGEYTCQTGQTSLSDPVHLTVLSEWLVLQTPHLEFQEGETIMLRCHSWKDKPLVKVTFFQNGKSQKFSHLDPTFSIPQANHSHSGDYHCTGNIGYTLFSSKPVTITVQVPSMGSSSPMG
# T2: human FcγRIIb (human, UniProt P31994 43-217)
# T2 construct: also called FcγIIB
# T2 sequence: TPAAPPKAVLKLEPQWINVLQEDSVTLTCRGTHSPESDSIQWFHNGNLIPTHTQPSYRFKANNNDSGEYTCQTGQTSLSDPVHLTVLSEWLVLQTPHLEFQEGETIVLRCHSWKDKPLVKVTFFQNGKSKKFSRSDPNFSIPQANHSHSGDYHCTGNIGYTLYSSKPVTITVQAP
# T3: human FcγRIIa type R (human, UniProt P12318 36-217)
# T3 construct: also called FcγRIIaR; FcγRIIa(R)
# T3 chain: T1 sequence with H133R
# T4: human FcγRIIa type H (human, UniProt P12318 36-217)
# T4 construct: also called FcgRIIaH; FcγRIIa(H)
# T4 sequence: T1 sequence
# B1: IL6R-B3/IL6R-L (antibody, human IgG1)
# heavy: not shown
# light: DIQMTQSPSSLSASVGDRVTITCRASQDISSYLNWYQQKPGKAPKLLIYYTSRLHSGVPSRFSGSGSGTDFTFTISSLQPEDIATYYCQQGNTLPYTFGQGTKVEIK
# notes: IL6R-G1d with K439E (EU numbering); copies: 2 + 2
# B2: IL6R-BF648/IL6R-L (antibody, human IgG1)
# heavy: not shown
# light: B1 light
# notes: IL6R-B3 with P238D; copies: 2 + 2
# B3: IL6R-BP116/IL6R-L (antibody, human IgG1)
# heavy: QVQLQESGPGLVKPSETLSLTCAVSGHSISHDHAWSWVRQPPGEGLEWIGFISYSGITNYNPSLQGRVTISRDNSKNTLYLQMNSLRAEDTAVYYCARSLARTTAMDYWGEGTLVTVSSASTKGPSVFPLAPSSKSTSGGTAALGCLVKDYFPEPVTVSWNSGALTSGVHTFPAVLQSSGLYSLSSVVTVPSSSLGTQTYICNVNHKPSNTKVDKKVEPKSCDKTHTCPPCPAPELLGGDSVFLFPPKPKDTLMISRTPEVTCVVVDVSHEDPEVKFNWYVDGVEVHNAKTKPREEQYNSTYRVVSVLTVLHQDWLNGKEYKCKVSNTALPAPIEKTISKAKGQPREPQVYTLPPSRDELTKNQVSLTCLVKGFYPSDIAVEWESNGQPENNYKTTPPVLDSDGSFFLYSKLTVDKSRWQQGNVFSCSVMHEALHNHYTQESLSLSP
# light: B1 light
# notes: copies: 2 + 2
# B4: IL6R-BP118/IL6R-L (antibody, human IgG1)
# heavy: B3 heavy with T328S
# light: B1 light
# notes: copies: 2 + 2
# B5: IL6R-BP100/IL6R-L (antibody, human IgG1)
# heavy: B3 heavy with S269A, T328K
# light: B1 light
# notes: copies: 2 + 2
# B6: IL6R-BP912/IL6R-L (antibody, human IgG1)
# heavy: B3 heavy with T328K, A332R
# light: B1 light
# notes: copies: 2 + 2
# B7: IL6R-2B128/IL6R-L (antibody, human IgG1)
# heavy: B3 heavy with Y298D, T328K
# light: B1 light
# notes: copies: 2 + 2
# B8: IL6R-BP119/IL6R-L (antibody, human IgG1)
# heavy: B3 heavy with T328M
# light: B1 light
# notes: copies: 2 + 2
# B9: IL6R-2B172/IL6R-L (antibody, human IgG1)
# heavy: B3 heavy with V325M, T328K
# light: B1 light
# notes: copies: 2 + 2
# B10: IL6R-BP121/IL6R-L (antibody, human IgG1)
# heavy: B3 heavy with T328Q
# light: B1 light
# notes: copies: 2 + 2
# B11: IL6R-BP107/IL6R-L (antibody, human IgG1)
# heavy: B3 heavy with H270E, T328K
# light: B1 light
# notes: copies: 2 + 2
# B12: IL6R-G1d/IL6R-L (antibody, human IgG1)
# heavy: not shown
# light: B1 light
# notes: Anti-human IL-6 receptor IgG1 with G1d constant region (C-terminal Gly and Lys removed); also called IgG1; copies: 2 + 2
# B13: IL6R-BP103/IL6R-L (antibody, human IgG1)
# heavy: B3 heavy with S269V, T328K
# light: B1 light
# notes: copies: 2 + 2
# B14: IL6R-BP110/IL6R-L (antibody, human IgG1)
# heavy: B3 heavy with H270N, T328K
# light: B1 light
# notes: copies: 2 + 2
# B15: IL6R-2B171/IL6R-L (antibody, human IgG1)
# heavy: B3 heavy with V325L, T328K
# light: B1 light
# notes: copies: 2 + 2
# B16: IL6R-2B169/IL6R-L (antibody, human IgG1)
# heavy: B3 heavy with V325I, T328K
# light: B1 light
# notes: copies: 2 + 2
# B17: IL6R-BP102/IL6R-L (antibody, human IgG1)
# heavy: B3 heavy with S269Q, T328K
# light: B1 light
# notes: copies: 2 + 2
# B18: IL6R-BP190/IL6R-L (antibody, human IgG1)
# heavy: B3 heavy with G239D, H270D, P273G, T328K, A332K
# light: B1 light
# notes: The common L chain is IL6R-L; copies: 2 + 2
# B19: IL6R-BP191/IL6R-L (antibody, human IgG1)
# heavy: B3 heavy with E235D, H270D, P273G, T328A, A332K
# light: B1 light
# notes: as for B18
# Biological target: T5, human FcγRIa (human, UniProt P12314 16-292, limits assumed)
# T5 construct: also called CD64
# Experiment: SPR (Biacore), FcγR over captured antibody; amount bound relative to IL6R-BF648/IL6R-L x100
# T5 sequence (P12314 16-292 limits assumed): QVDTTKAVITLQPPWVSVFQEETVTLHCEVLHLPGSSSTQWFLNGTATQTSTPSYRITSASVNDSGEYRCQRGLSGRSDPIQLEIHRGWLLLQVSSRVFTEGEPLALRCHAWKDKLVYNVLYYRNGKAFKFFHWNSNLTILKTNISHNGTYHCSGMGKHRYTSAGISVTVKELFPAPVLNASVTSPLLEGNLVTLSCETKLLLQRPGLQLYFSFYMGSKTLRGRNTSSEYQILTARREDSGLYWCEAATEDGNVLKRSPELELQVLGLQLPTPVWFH
row,relative binding,Binder
1,145 relative value (IL6R-BF648/IL6R-L = 100),B1
2,100 relative value (IL6R-BF648/IL6R-L = 100),B2
3,110 relative value (IL6R-BF648/IL6R-L = 100),B3
4,101 relative value (IL6R-BF648/IL6R-L = 100),B4
5,121 relative value (IL6R-BF648/IL6R-L = 100),B5
6,60 relative value (IL6R-BF648/IL6R-L = 100),B6
7,95 relative value (IL6R-BF648/IL6R-L = 100),B7
8,117 relative value (IL6R-BF648/IL6R-L = 100),B8
9,140 relative value (IL6R-BF648/IL6R-L = 100),B9
10,118 relative value (IL6R-BF648/IL6R-L = 100),B10
11,123 relative value (IL6R-BF648/IL6R-L = 100),B11
12,140 relative value (IL6R-BF648/IL6R-L = 100),B12
13,56 relative value (IL6R-BF648/IL6R-L = 100),B13
14,105 relative value (IL6R-BF648/IL6R-L = 100),B14
15,116 relative value (IL6R-BF648/IL6R-L = 100),B15
16,73 relative value (IL6R-BF648/IL6R-L = 100),B16
17,104 relative value (IL6R-BF648/IL6R-L = 100),B17

# Biological target: T1, human FcγRIIa type H
# Experiment: as above
row,relative binding,Binder
1,1600 relative value (IL6R-BF648/IL6R-L = 100),B1
2,100 relative value (IL6R-BF648/IL6R-L = 100),B2
3,110 relative value (IL6R-BF648/IL6R-L = 100),B3
4,128 relative value (IL6R-BF648/IL6R-L = 100),B4
5,128 relative value (IL6R-BF648/IL6R-L = 100),B5
6,93 relative value (IL6R-BF648/IL6R-L = 100),B6
7,37 relative value (IL6R-BF648/IL6R-L = 100),B7
8,133 relative value (IL6R-BF648/IL6R-L = 100),B8
9,179 relative value (IL6R-BF648/IL6R-L = 100),B9
10,135 relative value (IL6R-BF648/IL6R-L = 100),B10
11,1670 relative value (IL6R-BF648/IL6R-L = 100),B12
12,69 relative value (IL6R-BF648/IL6R-L = 100),B13
13,127 relative value (IL6R-BF648/IL6R-L = 100),B14
14,115 relative value (IL6R-BF648/IL6R-L = 100),B15
15,83 relative value (IL6R-BF648/IL6R-L = 100),B16
16,66 relative value (IL6R-BF648/IL6R-L = 100),B17

# Biological target: T6, human FcγRIIIa type V (human, UniProt P08637 17-208, limits assumed)
# T6 construct: also called FcγRIIIaV; FcγRIIIa(V)
# Experiment: as above
# T6 sequence (P08637 other isoform, or with tags, fused parts or gaps limits assumed): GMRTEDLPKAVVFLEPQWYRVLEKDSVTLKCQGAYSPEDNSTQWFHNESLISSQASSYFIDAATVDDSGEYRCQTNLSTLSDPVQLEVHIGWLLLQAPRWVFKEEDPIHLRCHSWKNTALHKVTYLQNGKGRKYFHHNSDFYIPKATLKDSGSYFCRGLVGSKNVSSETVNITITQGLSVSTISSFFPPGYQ
row,relative binding,Binder
1,3260 relative value (IL6R-BF648/IL6R-L = 100),B1
2,100 relative value (IL6R-BF648/IL6R-L = 100),B2
3,114 relative value (IL6R-BF648/IL6R-L = 100),B3
4,144 relative value (IL6R-BF648/IL6R-L = 100),B4
5,138 relative value (IL6R-BF648/IL6R-L = 100),B5
6,97 relative value (IL6R-BF648/IL6R-L = 100),B6
7,96 relative value (IL6R-BF648/IL6R-L = 100),B7
8,145 relative value (IL6R-BF648/IL6R-L = 100),B8
9,144 relative value (IL6R-BF648/IL6R-L = 100),B9
10,157 relative value (IL6R-BF648/IL6R-L = 100),B10
11,129 relative value (IL6R-BF648/IL6R-L = 100),B11
12,3350 relative value (IL6R-BF648/IL6R-L = 100),B12
13,77 relative value (IL6R-BF648/IL6R-L = 100),B13
14,127 relative value (IL6R-BF648/IL6R-L = 100),B14
15,122 relative value (IL6R-BF648/IL6R-L = 100),B15
16,94 relative value (IL6R-BF648/IL6R-L = 100),B16
17,86 relative value (IL6R-BF648/IL6R-L = 100),B17

# Biological target: T2, human FcγRIIb
# Experiment: as above
row,relative binding,Binder
1,58 relative value (IL6R-BF648/IL6R-L = 100),B1
2,100 relative value (IL6R-BF648/IL6R-L = 100),B2
3,108 relative value (IL6R-BF648/IL6R-L = 100),B3
4,104 relative value (IL6R-BF648/IL6R-L = 100),B4
5,110 relative value (IL6R-BF648/IL6R-L = 100),B5
6,103 relative value (IL6R-BF648/IL6R-L = 100),B6
7,103 relative value (IL6R-BF648/IL6R-L = 100),B7
8,110 relative value (IL6R-BF648/IL6R-L = 100),B8
9,132 relative value (IL6R-BF648/IL6R-L = 100),B9
10,113 relative value (IL6R-BF648/IL6R-L = 100),B10
11,118 relative value (IL6R-BF648/IL6R-L = 100),B11
12,62 relative value (IL6R-BF648/IL6R-L = 100),B12
13,107 relative value (IL6R-BF648/IL6R-L = 100),B13
14,101 relative value (IL6R-BF648/IL6R-L = 100),B14
15,113 relative value (IL6R-BF648/IL6R-L = 100),B15
16,104 relative value (IL6R-BF648/IL6R-L = 100),B16
17,106 relative value (IL6R-BF648/IL6R-L = 100),B17

# Biological target: T3, human FcγRIIa type R
# Experiment: as above
row,relative binding,Binder
1,625 relative value (IL6R-BF648/IL6R-L = 100),B1
2,100 relative value (IL6R-BF648/IL6R-L = 100),B2
3,126 relative value (IL6R-BF648/IL6R-L = 100),B3
4,132 relative value (IL6R-BF648/IL6R-L = 100),B4
5,197 relative value (IL6R-BF648/IL6R-L = 100),B5
6,81 relative value (IL6R-BF648/IL6R-L = 100),B6
7,87 relative value (IL6R-BF648/IL6R-L = 100),B7
8,181 relative value (IL6R-BF648/IL6R-L = 100),B8
9,244 relative value (IL6R-BF648/IL6R-L = 100),B9
10,155 relative value (IL6R-BF648/IL6R-L = 100),B10
11,147 relative value (IL6R-BF648/IL6R-L = 100),B11
12,650 relative value (IL6R-BF648/IL6R-L = 100),B12
13,163 relative value (IL6R-BF648/IL6R-L = 100),B13
14,128 relative value (IL6R-BF648/IL6R-L = 100),B14
15,117 relative value (IL6R-BF648/IL6R-L = 100),B15
16,165 relative value (IL6R-BF648/IL6R-L = 100),B17

# Biological target: T7, human FcγRIa (human, UniProt P12314 16-292, limits assumed)
# T7 construct: also called FcgRIa; CD64
# Experiment: SPR (Biacore); binding amount divided by that of control IL6R-BF648/IL6R-L, x100
# T7 sequence (P12314 16-292 limits assumed): as the sequence (P12314 16-292 limits assumed) above
# Description: (§1) According to the following method, relative binding activities were calculated for the results of analyzing interactions with the respective FcγRs.
row,relative binding activity,Binder
1,50 % of IL6R-BF648/IL6R-L,B18
2,125 % of IL6R-BF648/IL6R-L,B19

# Biological target: T8, human FcγRIIIa type V (human, UniProt P08637 17-208, limits assumed)
# T8 construct: The assay used allotype V158; also called FcgRIIIaV; FcγRIIIa(V)
# Experiment: as above
# T8 sequence (P08637 other isoform, or with tags, fused parts or gaps limits assumed): as the sequence (P08637 other isoform, or with tags, fused parts or gaps limits assumed) above
# Description: as §1
row,relative binding activity,Binder
1,155 % of IL6R-BF648/IL6R-L,B18
2,142 % of IL6R-BF648/IL6R-L,B19

# Biological target: T4, human FcγRIIa type H
# Experiment: as above
# Description: as §1
row,relative binding activity,Binder
1,224 % of IL6R-BF648/IL6R-L,B18
2,145 % of IL6R-BF648/IL6R-L,B19
